Test results from PMC4847859.

Test system: CdpR (Pseudomonas aeruginosa PAO1)
Test: EMSA

**Q.** pqsH-p (pqsH-cdpR intergenic region) was tested. Which K half did it give?
**A.** 500 nM
